Values of other authors, collected in paper PMC4798892.

Assays:
[1] = target: Histone H3 (H3K9me3S10ph) (Homo sapiens) (UniProt P68431)
[2] = target: Histone H3 (H3K4me0) (Homo sapiens) (UniProt P68431)
[3] = target: Histone H3 (H3K9me3) (Homo sapiens) (UniProt P68431)

ATRX ADD (from UniProt P46100)
Kd [1]: 190 nM | Kd [2]: 3000 nM | Kd [3]: 110 nM
